Laboratory results: IntAct's records for PubMed 14675752

B1: Clathrin interactor 1 (Homo sapiens), Q14677 (parent)
chain: MLNMWKVRELVDKATNVVMNYSEIESKVREATNDDPWGPSGQLMGEIAKATFMYEQFPELMNMLWSRMLKDNKKNWRRVYKSLLLLAYLIRNGSERVVTSAREHIYDLRSLENYHFVDEHGKDQGINIRQKVKELVEFAQDDDRLREERKKAKKNKDKYVGVSSDSVGGFRYSERYDPEPKSKWDEEWDKNKSAFPFSDKLGELSDKIGSTIDDTISKFRRKDREDSPERCSDSDEEKKARRGRSPKGEFKDEEETVTTKHIHITQATETTTTRHKRTANPSKTIDLGAAAHYTGDKASPDQNASTHTPQSSVKTSVPSSKSSGDLVDLFDGTSQSTGGSADLFGGFADFGSAAASGSFPSQVTATSGNGDFGDWSAFNQAPSGPVASSGEFFGSASQPAVELVSGSQSALGPPPAASNSSDLFDLMGSSQATMTSSQSMNFSMMSTNTVGLGLPMSRSQNTDMVQKSVSKTLPSTWSDPSVNISLDNLLPGMQPSKPQQPSLNTMIQQQNMQQPMNVMTQSFGAVNLSSPSNMLPVRPQTNALIGGPMPMSMPNVMTGTMGMAPLGNTPMMNQSMMGMNMNIGMSAAGMGLTGTMGMGMPNIAMTSGTVQPKQDAFANFANFSK

Variants of: B1
Details: with ap1g1_mouse Ap1g1, P22892
ap1g1_mouse Ap1g1, P22892, sequence (P22892 whole entry): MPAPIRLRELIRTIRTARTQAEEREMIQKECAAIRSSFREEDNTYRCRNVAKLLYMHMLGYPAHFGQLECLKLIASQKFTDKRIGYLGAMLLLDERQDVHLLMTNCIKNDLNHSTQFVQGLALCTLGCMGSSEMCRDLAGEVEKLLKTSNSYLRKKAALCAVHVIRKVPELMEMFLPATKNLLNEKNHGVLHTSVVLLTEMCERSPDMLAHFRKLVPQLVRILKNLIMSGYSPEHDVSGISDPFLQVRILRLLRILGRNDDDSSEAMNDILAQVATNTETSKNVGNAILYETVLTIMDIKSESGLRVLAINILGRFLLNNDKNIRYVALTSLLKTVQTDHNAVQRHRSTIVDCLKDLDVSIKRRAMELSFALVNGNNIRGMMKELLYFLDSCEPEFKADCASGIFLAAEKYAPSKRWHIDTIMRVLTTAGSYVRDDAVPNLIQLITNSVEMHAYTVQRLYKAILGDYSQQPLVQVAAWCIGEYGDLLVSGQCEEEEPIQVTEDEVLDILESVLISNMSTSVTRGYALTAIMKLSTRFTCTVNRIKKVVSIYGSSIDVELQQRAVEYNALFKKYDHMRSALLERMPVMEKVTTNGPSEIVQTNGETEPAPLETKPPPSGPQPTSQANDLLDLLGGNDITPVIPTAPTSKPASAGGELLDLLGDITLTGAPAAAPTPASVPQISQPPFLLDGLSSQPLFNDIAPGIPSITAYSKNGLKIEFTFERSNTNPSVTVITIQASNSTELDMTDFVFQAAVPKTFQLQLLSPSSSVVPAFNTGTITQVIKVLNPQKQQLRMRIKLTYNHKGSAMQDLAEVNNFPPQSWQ

effect of a mutation on the interaction	Variant
decreasing interaction	D371A

Variants of: B1
Details: with ap1g1_mouse Ap1g1, P22892
Remark: another data set of the same source

effect of a mutation on the interaction	Variant
decreasing interaction	F372A

Variants of: B1
Details: with ap1g1_mouse Ap1g1, P22892
Remark: another data set of the same source

effect of a mutation on the interaction	Variant
decreasing interaction	G373R

Variants of: B1
Details: with ap1g1_mouse Ap1g1, P22892
Remark: another data set of the same source

effect of a mutation on the interaction	Variant
decreasing interaction	D374A

Variants of: B1
Details: with ap1g1_mouse Ap1g1, P22892
Remark: another data set of the same source

effect of a mutation on the interaction	Variant
decreasing interaction	W375A

Variants of: B1
Details: with ap1g1_mouse Ap1g1, P22892
Remark: another data set of the same source

effect of a mutation on the interaction	Variant
decreasing interaction	F378A
